Values of other authors, collected in publication PMC9163320.

Target: Asp303 (UniProt position 303, VILFMDRNLEQ)
Experiment: NMR
Conditions: folded Hint domain; no ligand stated

| Substance | pKa |
| --- | --- |
| Hedgehog protein, Hint domain of HhC, C258A mutant (Drosophila melanogaster; C258A) | 4.2 |
| Hedgehog protein, Hint domain of the C-terminal autoprocessing domain (HhC) (Drosophila melanogaster) | 5.6 |
